Measured values reported in patent US11015206B2, “Compositions and methods comprising sequences having hydroxyphenylpyruvate dioxygenase (HPPD) activity” (PIONEER HI-BRED INTERNATIONAL, INC., priority 2014, dated 2021).

Tests used:
Format in all cases: biochemical, Z. mays
[1] = test system: 4-hydroxyphenylpyruvate dioxygenase (HPPD); assay: HPPD activity coupled assay with HGD; substrate saturation kinetic parameters (kcat, KM); conditions: substrate saturation kinetic analysis
Outline: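 Coupled continuous assay: His-tagged HPPD (5 to 240 nM, E. coli-expressed, Ni-NTA-purified) with 50 nM P. aeruginosa HGD in 25 mM Hepes pH 7, 2 mM ascorbate, 10 μM FeSO4; maleylacetoacetate followed at 320 nm. KM and Vmax from Lineweaver-Burke fits over 3.33–100 μM HPP.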

[2] = test system: 4-hydroxyphenylpyruvate dioxygenase (HPPD); assay: ON rate ratio: HPPD reaction rate with vs without inhibitor in the 70 to 90 second interval; conditions: for ON rate ratio: Table 7, tembotrione, combinatorial variants; for Insensitivity, isoxaflutole (DKN), Rate ratio ON: inhibitor diketonitrile form of isoxaflutole (DKN); for Insensitivity, mesotrione, Rate ratio ON: inhibitor mesotrione; for Insensitivity, sulcotrione, Rate ratio ON: inhibitor sulcotrione; for Insensitivity, tembotrione, Rate ratio ON: inhibitor tembotrione; for Insensitivity, topramezone, Rate ratio ON: inhibitor topramezone
Outline: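 Indicator of inhibitor on-rate: reaction velocity in the 70 to 90 second window with 4 μM inhibitor divided by that without. Reactions contained 100 μM HPP and 60 or 120 nM HPPD; slower binding gives a larger ratio.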

[3] = test system: 4-hydroxyphenylpyruvate dioxygenase (HPPD); assay: Insensitivity parameter (ON × OFF) and trait fitness (ON × OFF × kcat/KM or × kcat); design: key to ON × OFF / Insensitivity, mesotrione, ON × OFF / Insensitivity, tembotrione, ON × OFF / Insensitivity, topramezone, ON × OFF / Insensitivity, sulcotrione, ON × OFF / Insensitivity, isoxaflutole (DKN), ON × OFF: insensitivity = ON rate ratio × OFF rate ratio (surrogate for KD); conditions: for Insensitivity, isoxaflutole (DKN), ON × OFF / Insensitivity, isoxaflutole (DKN), Trait fitness: inhibitor diketonitrile form of isoxaflutole (DKN); for Insensitivity, mesotrione, ON × OFF / Insensitivity, mesotrione, Trait Fitness: inhibitor mesotrione; for Insensitivity, sulcotrione, ON × OFF / Insensitivity, sulcotrione, Trait fitness: inhibitor sulcotrione; for Insensitivity, tembotrione, ON × OFF / Insensitivity, tembotrione, Trait fitness: inhibitor tembotrione; for Insensitivity, topramezone, ON × OFF / Insensitivity, topramezone, Trait Fitness: inhibitor topramezone
Outline: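 Trait fitness combines catalysis and insensitivity as kcat/KM × ON rate ratio × OFF rate ratio. The insensitivity parameter is the product of ON and OFF rate ratios, used in place of KD because the ON rate ratio is inverse.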

[4] = test system: 4-hydroxyphenylpyruvate dioxygenase (HPPD); assay: Estimate of kcat from initial rate at saturating hydroxyphenylpyruvate without inhibitor (ON rate ratio assay)
Outline: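 kcat was estimated from the initial reaction rate with known enzyme level (60 or 120 nM HPPD). Hydroxyphenylpyruvate was at a saturating 100 μM, with no inhibitor present.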

[5] = Table 7, tembotrione, combinatorial variants
[6] = Table 7, combinatorial variants

B1: P056028-G-01 (protein)
chain: MGPTPTATAAGAAVAAASAAEQAAFRLVGHRNFVRFNPRSDRFQTLAFHHVELWCADAASAAGRFSFALGVPLAARSDLSTGNSAHASLLLRSGSLSLLFTAPYAHGADAATAALPSFSAAAARRFAADHGLAVRAVALRVADAEDAFRASVAAGARPAFGPVDLGRGFRLAEVELYGDVVLRYVSYPDGAAGEPFLPGFEGVASPGAADLGLNRFDHIVGNVPELAPAAAYMAGFTGFHEFAEFTTEDVGTTESGLNSMALANNSENVLLPLNEPVHGTKRRSQIQTFLDHHGGPGVQHIALASDDVLRTLREMRARSAMGGFEFLPPPLSDYYDGVRKCAGDVLTEAQINECQELGVMVDRDDEGVLLQIFTKPVGDRPTFFLEIIQRIGCMEKDEKGQEYQKGGCGGFGKGNFGQLFKSIEDYEKSLEKKRAAAAATAQGS
modifications: Zea mays variant form created by artificial means.
Km [1]: 2060 nM
kcat [1]: 41.4 min⁻¹
ON rate ratio [2]: 0.742
Insensitivity, isoxaflutole (DKN), Rate ratio ON [2]: 0.77
Insensitivity, mesotrione, Rate ratio ON [2]: 0.71
Insensitivity, sulcotrione, Rate ratio ON [2]: 0.78
Insensitivity, tembotrione, Rate ratio ON [2]: 0.77
Insensitivity, topramezone, Rate ratio ON [2]: 0.80
ON × OFF ([3]; Megatable 3, shuffled variants): 0.238
ON × OFF × kcat ([3]; Megatable 3, shuffled variants): 7.65
ON × OFF [3, 5]: 0.238
ON × OFF × kcat [3, 5]: 7.65
Insensitivity, isoxaflutole (DKN), ON × OFF [3]: 0.32
Insensitivity, isoxaflutole (DKN), Trait fitness [3]: 6.55
Insensitivity, mesotrione, ON × OFF [3]: 0.71
Insensitivity, mesotrione, Trait Fitness [3]: 14.6
Insensitivity, sulcotrione, ON × OFF [3]: 0.89
Insensitivity, sulcotrione, Trait fitness [3]: 18.2
Insensitivity, tembotrione, ON × OFF [3]: 0.36
Insensitivity, tembotrione, Trait fitness [3]: 7.32
Insensitivity, topramezone, ON × OFF [3]: 0.46
Insensitivity, topramezone, Trait Fitness [3]: 9.31
kcat ([4]; Megatable 3, shuffled variants): 32.2 min⁻¹
kcat [4, 6]: 32.2 min⁻¹

B2: P056028-B-02 (protein)
chain: MGPTPTATAAGAAVAAASAAEQAAFRLVGHRNFVRFNPRSDRFQTLAFHHVELWCADAASAAGRFSFALGVPLAARSDLSTGNSAHASLLLRSGSLSLLFTAPYAHGADAATAALPSFSAAAARRFAADHGLAVRAVALRVADAEDAFRASVAAGARPAFGPVDLGRGFRLAEVELYGDVVLRYVSYPDGAAGEPFLPGFEGVASSGAADYGLSRFDHIVGNVPELAPAAAYMAGFTGFHEFAEFTTEDVGTTESGLNSMALANNSENVLLPLNEPVHGTKRRSQIQTFLDHHGGPGVQHIALASDDVLRTLREMRARSAMGGFEFLPPPLSDYYDGVRRCAGDVLTEAQINECQKLGVMVDRDDEGVLLQIFTKPVGDRPTFFLEIIQRIGCMEKDEKGQEYQKGGCGGFGKGNFGQLFKSIEDYERSLEAKQAAAVATAQGS
modifications: Zea mays variant form created by artificial means.
Km [1]: 3000 nM
kcat [1]: 58.7 min⁻¹
ON rate ratio [2]: 0.800
Insensitivity, isoxaflutole (DKN), Rate ratio ON [2]: 0.80
Insensitivity, mesotrione, Rate ratio ON [2]: 0.63
Insensitivity, sulcotrione, Rate ratio ON [2]: 0.81
Insensitivity, tembotrione, Rate ratio ON [2]: 0.80
Insensitivity, topramezone, Rate ratio ON [2]: 0.79
ON × OFF ([3]; Megatable 3, shuffled variants): 0.375
ON × OFF × kcat ([3]; Megatable 3, shuffled variants): 10.58
ON × OFF [3, 5]: 0.375
ON × OFF × kcat [3, 5]: 10.58
Insensitivity, isoxaflutole (DKN), ON × OFF [3]: 0.35
Insensitivity, isoxaflutole (DKN), Trait fitness [3]: 6.78
Insensitivity, mesotrione, ON × OFF [3]: 0.63
Insensitivity, mesotrione, Trait Fitness [3]: 12.3
Insensitivity, sulcotrione, ON × OFF [3]: 0.81
Insensitivity, sulcotrione, Trait fitness [3]: 15.8
Insensitivity, tembotrione, ON × OFF [3]: 0.37
Insensitivity, tembotrione, Trait fitness [3]: 7.35
Insensitivity, topramezone, ON × OFF [3]: 0.42
Insensitivity, topramezone, Trait Fitness [3]: 8.17
kcat ([4]; Megatable 3, shuffled variants): 28.2 min⁻¹
kcat [4, 6]: 28.2 min⁻¹

B3: P056028-A-03 (protein)
chain: MGPTPTATAAGAAVAAASAAEQAAFRLVGHRNFVRFNPRSDRFQTLAFHHVELWCADAASAAGRFSFALGVPLAARSDLSTGNSAHASLLLRSGSLSLLFTAPYAHGADAATAALPSFSAAAARRFAADHGLAVRAVALRVADAEDAFRASVAAGARPAFGPVDLGRGFRLAEVELYGDVVLRYVSYPDGGAGEPFLPGFEGVASPGAADLGLSRFDHIVGNVPELAPAAAYMAGFTGFHEFAEFTTEDVGTTESGLNSMALANNSENVLLPLNEPVHGTKRRSQIQTFLDHHGGPGVQHIALASDDVLRTLREMRARSAMGGFEFLPPPLSDYYDGVRRCAGDVLTEAQINECQELGVMVDRDDEGVLLQIFTKPVGDRPTFFLEIIQRIGCMEKDEKGQEYQKGGCGGFGKGNFGQLFKSIEDYEKSLERKRAAAAATAQGS
modifications: Zea mays variant form created by artificial means.
Km [1]: 2980 nM
kcat [1]: 62.8 min⁻¹
ON rate ratio [2]: 0.748
Insensitivity, isoxaflutole (DKN), Rate ratio ON [2]: 0.81
Insensitivity, mesotrione, Rate ratio ON [2]: 0.70
Insensitivity, sulcotrione, Rate ratio ON [2]: 0.80
Insensitivity, tembotrione, Rate ratio ON [2]: 0.80
Insensitivity, topramezone, Rate ratio ON [2]: 0.81
ON × OFF ([3]; Megatable 3, shuffled variants): 0.181
ON × OFF × kcat ([3]; Megatable 3, shuffled variants): 4.36
ON × OFF [3, 5]: 0.181
ON × OFF × kcat [3, 5]: 4.36
Insensitivity, isoxaflutole (DKN), ON × OFF [3]: 0.34
Insensitivity, isoxaflutole (DKN), Trait fitness [3]: 7.25
Insensitivity, mesotrione, ON × OFF [3]: 0.70
Insensitivity, mesotrione, Trait Fitness [3]: 14.8
Insensitivity, sulcotrione, ON × OFF [3]: 0.75
Insensitivity, sulcotrione, Trait fitness [3]: 15.7
Insensitivity, tembotrione, ON × OFF [3]: 0.32
Insensitivity, tembotrione, Trait fitness [3]: 6.81
Insensitivity, topramezone, ON × OFF [3]: 0.38
Insensitivity, topramezone, Trait Fitness [3]: 7.97
kcat ([4]; Megatable 3, shuffled variants): 24 min⁻¹
kcat [4, 6]: 24 min⁻¹

B4: P056028-G-01R (protein)
chain: MGPTPTATAAGAAVAAASAAEQAAFRLVGHRNFVRFNPRSDRFQTLAFHHVELWCADAASAAGRFSFALGVPLAARSDLSTGNSAHASLLLRSGSLSLLFTAPYAHGADAATAALPSFSAAAARRFAADHGLAVRAVALRVADAEDAFRASVAAGARPAFGPVDLGRGFRLAEVELYGDVVLRYVSYPDGAAGEPFLPGFEGVASPGAADLGLNRFDHIVGNVPELAPAAAYMAGFTGFHEFAEFTTEDVGTTESGLNSMALANNSENVLLPLNEPVHGTKRRSQIQTFLDHHGGPGVQHIALASDDVLRTLREMRARSAMGGFEFLPPPLSDYYDGVRKCAGDVLTEAQINECQELGVMVDRDDEGVLLQIFTKPVGDRPTFFLEIIQRIGCREKDEKGQEYQKGGCGGFGKGNFGQLFKSIEDYEKSLEKKRAAAAATAQGS
modifications: Zea mays variant form created by artificial means.
Km [1]: 2020 nM
kcat [1]: 70.8 min⁻¹
ON rate ratio [2]: 0.719
Insensitivity, isoxaflutole (DKN), Rate ratio ON [2]: 0.77
Insensitivity, mesotrione, Rate ratio ON [2]: 0.73
Insensitivity, sulcotrione, Rate ratio ON [2]: 0.75
Insensitivity, tembotrione, Rate ratio ON [2]: 0.72
Insensitivity, topramezone, Rate ratio ON [2]: 0.81
ON × OFF ([3]; Megatable 3, shuffled variants): 0.201
ON × OFF × kcat ([3]; Megatable 3, shuffled variants): 14.24
ON × OFF [3, 5]: 0.201
ON × OFF × kcat [3, 5]: 14.24
Insensitivity, isoxaflutole (DKN), ON × OFF [3]: 0.29
Insensitivity, isoxaflutole (DKN), Trait fitness [3]: 3.98
Insensitivity, mesotrione, ON × OFF [3]: 0.73
Insensitivity, mesotrione, Trait Fitness [3]: 25.6
Insensitivity, sulcotrione, ON × OFF [3]: 0.83
Insensitivity, sulcotrione, Trait fitness [3]: 11.5
Insensitivity, tembotrione, ON × OFF [3]: 0.20
Insensitivity, tembotrione, Trait fitness [3]: 7.09
Insensitivity, topramezone, ON × OFF [3]: 0.43
Insensitivity, topramezone, Trait Fitness [3]: 5.91
kcat ([4]; Megatable 3, shuffled variants): 70.8 min⁻¹
kcat [4, 6]: 70.8 min⁻¹
